Laboratory results reported in paper PMC4968546, “Heterologous Production and Characterization of Two Glyoxal Oxidases from Pycnoporus cinnabarinus” (Applied and Environmental Microbiology, 2016).

Key:
Assay in all cases: HRP/ABTS coupled H2O2 assay, A420, Lineweaver-Burk
Format in all cases: biochemical, Trametes cinnabarina
Conditions in all cases: 50 mM sodium 2,2-dimethylsuccinate, pH 6, 30°C, O2 as co-substrate, HRP, 0.1 mM ABTS
[1] = substrate: CC(=O)C=O
Text: (§1) HRP/ABTS coupled H2O2 assay, A420, Lineweaver-Burk on PciGLOX1

[2] = substrate: O=CC(=O)O
Text: as §1

[3] = substrate: O=CC=O
Text: as §1

[4] = substrate: CC(=O)C=O; remark: listed apart in the source
Text: (§2) HRP/ABTS coupled H2O2 assay, A420, Lineweaver-Burk on PciGLOX2

[5] = substrate: O=CC(=O)O; remark: listed apart in the source
Text: as §2

[6] = substrate: O=CC=O; remark: listed apart in the source
Text: as §2

[7] = substrate: OCC(O)CO
Text: as §2

B1: PciGLOX1 (Trametes cinnabarina) (protein)
chain: APSAPGWRFDLKAERSGIVALESIVVSPTLVLWFDRASDDPLQINNHSAWGALWNLETSTVRPLNVLTNSFCASGALLSNGSMASVGGDPRGFPGNPAINPGNQAIRIFEPCASPTGDGCTVFEDPQTLHLLEDRWYPSSIRIFDGSLLIVGGTHVNENFYNLHPANSFEFFPPKESTPRPSAFLERSLPANLFPRIFALPDGKVFMVANNQSIIYDIEANTERILPDIPNNVRVTNPIDGSAILLPLTPPDYIPEVLVCGGTSTDPLDPSLLSSQTPATTQCSRIRLDEEGIAKGWQVEHMLEPRTMPELVHIPNGQILIANGARTGFAAIKQVQDPIGNSNSDHAVLVPSIYTPDAPLGQRISNAGMPSSGIARVYHSSITLTPQGNFLIAGSNPNGNTTVGPGVKFPSEFRVQTLDPPFMFVERPKILNTPEKLAFNKTFTVPISVPSTLASPGAKVQVSLMDLGFSSHAFHSSARLVFMDATISRDRRSLTFTTPPNGRVFPPGPATVFLTIDGVTSEGAWVMMGSGNSPPTLE
notes: secreted from Aspergillus niger D15#26; native 18-aa signal peptide … replaced by A. niger glucoamylase prepro (removed in processing); ORF 556 aa; N-terminus APSA; N-glycosylated, 70 kDa (about 60 kDa deglycosylated)
In the case of B1, the Km [1] is reported as 1300 µM, the Vmax [1] is reported as 77.3 µmol/min/mg and the kcat [1] is reported as 76 s⁻¹. It also gave a kcat/Km [1] of 58500 M⁻¹ s⁻¹, a Km [2] of 88 µM and a Vmax [2] of 192 µmol/min/mg. The kcat [2] was 188 s⁻¹, the kcat/Km [2] was 2.14e+06 M⁻¹ s⁻¹ and the Km [3] was 13100 µM. For the same protein, the Vmax [3] was 85.3 µmol/min/mg, the kcat [3] was 83 s⁻¹ and the kcat/Km [3] was 6340 M⁻¹ s⁻¹.

B2: PciGLOX2 (Trametes cinnabarina) (protein)
chain: APSTPTGWQFNLKAERSGIVALESIVVSPTLVVFFDRATNDPLQINNHSAWGALWNLETSTVRALDVLTNSFCASGALLSNGTMASIGGDPNGFPGNPAIHPGTQAIRLFEPCDSPTGEGCTLFEDPVTLHLLEKRWYPSSVRIFDGSLLIVGGMHEETPFYNTDPALSFEFFPPKESTPRPSEFLNRSLPANLFPRVFALPDGKVFMVANNQSIIYDIEANTERILPDIPNNVRVTNPIDGSAILLPLSPPDFVPEVLVCGGTQTDTIDPSLLTSQTPASSQCSRIRLDEEGIARGWEVEHMLEGRMMPELVHLPNGQVLIANGARTGFAAIASVSDPVGGSNADHAVLVPSLYTPDAPLGTRISNVGLPSSGIARVYHSSITLTPQGNFLIAGSNPNNNSSVTAGVKFPSEFRVQTLDPPFMFVERPKILSMPKKLAFGKSFTVPIAVPSTLAHPGAKVQVSLMDLGFSSHAFHSSARLVFMNAKISQDGKSLTFTTPPNGRVYPPGPATIFLTIDDVTSEGAWVMMGSGNPPPTLE
notes: secreted from Aspergillus niger D15#26; ORF 559 aa; N-terminus APST; N-glycosylated, 70 kDa (about 60 kDa deglycosylated)
With B2 the Km [4] was 200 µM, the kcat [4] was 1.4 s⁻¹ and the Km [5] was 100 µM. For the same protein, the Vmax [5] was 17.9 µmol/min/mg, the kcat [5] was 1.7 s⁻¹ and the kcat/Km [5] was 17000 M⁻¹ s⁻¹. It also gave a Km [6] of 2200 µM, a Vmax [6] of 15 µmol/min/mg and a kcat [6] of 1.4 s⁻¹. The kcat/Km [6] was 636 M⁻¹ s⁻¹, the Km [7] was 9400 µM and the Vmax [7] was 6.42 µmol/min/mg. For the same protein, the kcat [7] was 0.6 s⁻¹ and the kcat/Km [7] was 63 M⁻¹ s⁻¹.
